# Results as given in patent US20110300138A1 (published 2011).
# Where two headings read alike, the source gives them in different places.
# What was measured:
# Experiment in all cases: cell-based or functional assay
# [1] = biological target: TSHR with Arg109 mutated to Ala, expressed in CHO cells (human) (UniProt P16473)
# [2] = biological target: TSHR with Arg80 mutated to Ala expressed in CHO cells (human) (UniProt P16473)
# [3] = biological target: TSHR with Asp151 mutated to Ala, expressed in CHO cells (human) (UniProt P16473)
# [4] = biological target: TSHR with Asp203 mutated to Ala expressed in CHO cells (human) (UniProt P16473)
# [5] = biological target: TSHR with Asp276 mutated to Ala, expressed in CHO cells (human) (UniProt P16473)
# [6] = biological target: TSHR with Lys183 mutated to Ala expressed in CHO cells (human) (UniProt P16473)
# [7] = biological target: TSHR with Lys58 mutated to Ala expressed in CHO cells (human) (UniProt P16473)
# [8] = biological target: TSHR with Tyr185 mutated to Ala (human) (UniProt P16473)
# [9] = biological target: wild type TSHR (human) (UniProt P16473)
# [10] = biological target: wild type TSHR expressed in CHO cells (human) (UniProt P16473)
substance,measurement,setting,value
5B3 IgG (antibody),% inhibition of TSH stimulation; 5B3 10 µg/mL; Experiment 1,[1],0%
same,% inhibition of TSH stimulation; 5B3 10 µg/mL; Experiment 2,[1],0%
same,% inhibition of TSH stimulation; 5B3 100 µg/mL; Experiment 1,[1],0%
same,% inhibition of TSH stimulation; 5B3 100 µg/mL; Experiment 2,[1],0%
same,Cyclic AMP produced; 5B3 10 µg/mL + TSH 3 ng/mL; Experiment 1,[1],34.4 pmol/mL
same,Cyclic AMP produced; 5B3 10 µg/mL + TSH 3 ng/mL; Experiment 2,[1],60.6 pmol/mL
same,Cyclic AMP produced; 5B3 100 µg/mL + TSH 3 ng/mL; Experiment 1,[1],34.5 pmol/mL
same,Cyclic AMP produced; 5B3 100 µg/mL + TSH 3 ng/mL; Experiment 2,[1],56.6 pmol/mL
same,Mutated/wild type (%) of cyclic AMP produced; 5B3 10 µg/mL + TSH 3 ng/mL; Experiment 1,[1],52%
same,Mutated/wild type (%) of cyclic AMP produced; 5B3 10 µg/mL + TSH 3 ng/mL; Experiment 2,[1],88%
same,Mutated/wild type (%) of cyclic AMP produced; 5B3 100 µg/mL + TSH 3 ng/mL; Experiment 1,[1],50%
same,Mutated/wild type (%) of cyclic AMP produced; 5B3 100 µg/mL + TSH 3 ng/mL; Experiment 2,[1],85%
same,% inhibition of TSH stimulation; 5B3 10 µg/mL,[2],0.3%
same,% inhibition of TSH stimulation; 5B3 100 µg/mL,[2],4%
same,Cyclic AMP produced; 5B3 10 µg/mL + TSH 3 ng/mL,[2],105 pmol/mL
same,Cyclic AMP produced; 5B3 100 µg/mL + TSH 3 ng/mL,[2],101 pmol/mL
same,Mutated/wild type (%) of cyclic AMP produced; 5B3 10 µg/mL + TSH 3 ng/mL,[2],102%
same,Mutated/wild type (%) of cyclic AMP produced; 5B3 100 µg/mL + TSH 3 ng/mL,[2],107%
same,"% inhibition of TSH stimulation, mutated TSHR; 5B3 10 µg/mL",[3],11%
same,"% inhibition of TSH stimulation, mutated TSHR; 5B3 100 µg/mL",[3],0%
same,Mutated/wild type (%) of cyclic AMP produced; test sample: 5B3 10 µg/mL + TSH (3 ng/mL),[3],53%
same,Mutated/wild type (%) of cyclic AMP produced; test sample: 5B3 100 µg/mL + TSH (3 ng/mL),[3],57%
same,% inhibition of TSH stimulation: 5B3 10 µg/mL,[4],0%
same,% inhibition of TSH stimulation: 5B3 100 µg/mL,[4],0%
same,"Cyclic AMP, Mutated/wild type (%): 5B3 10 µg/mL + TSH 3 ng/mL",[4],89%
same,"Cyclic AMP, Mutated/wild type (%): 5B3 100 µg/mL + TSH 3 ng/mL",[4],84%
same,Experiment 1; % inhibition of TSH stimulation; 5B3 10 µg/mL,[5],6%
same,Experiment 1; % inhibition of TSH stimulation; 5B3 100 µg/mL,[5],4%
same,Experiment 1; Mutated/wild type (%) of cyclic AMP produced; 5B3 10 µg/mL + TSH 3 ng/mL,[5],84%
same,Experiment 1; Mutated/wild type (%) of cyclic AMP produced; 5B3 100 µg/mL + TSH 3 ng/mL,[5],94%
same,Experiment 1; cyclic AMP produced; 5B3 10 µg/mL + TSH 3 ng/mL,[5],66.8 pmol/mL
same,Experiment 1; cyclic AMP produced; 5B3 100 µg/mL + TSH 3 ng/mL,[5],68.5 pmol/mL
same,Experiment 2; % inhibition of TSH stimulation; 5B3 10 µg/mL,[5],4%
same,Experiment 2; % inhibition of TSH stimulation; 5B3 100 µg/mL,[5],0%
same,Experiment 2; Mutated/wild type (%) of cyclic AMP produced; 5B3 10 µg/mL + TSH 3 ng/mL,[5],67%
same,Experiment 2; Mutated/wild type (%) of cyclic AMP produced; 5B3 100 µg/mL + TSH 3 ng/mL,[5],75%
same,Experiment 2; cyclic AMP produced; 5B3 10 µg/mL + TSH 3 ng/mL,[5],71.6 pmol/mL
same,Experiment 2; cyclic AMP produced; 5B3 100 µg/mL + TSH 3 ng/mL,[5],75.9 pmol/mL
same,"% inhibition of TSH stimulation, Exp 1: 5B3 10 µg/mL",[6],24%
same,"% inhibition of TSH stimulation, Exp 1: 5B3 100 µg/mL",[6],17%
same,"% inhibition of TSH stimulation, Exp 2: 5B3 10 µg/mL",[6],9%
same,"% inhibition of TSH stimulation, Exp 2: 5B3 100 µg/mL",[6],9%
same,"Cyclic AMP, Mutated/wild type (%), Exp 1: 5B3 10 µg/mL + TSH 3 ng/mL",[6],93%
same,"Cyclic AMP, Mutated/wild type (%), Exp 1: 5B3 100 µg/mL + TSH 3 ng/mL",[6],91%
same,"Cyclic AMP, Mutated/wild type (%), Exp 2: 5B3 10 µg/mL + TSH 3 ng/mL",[6],104%
same,"Cyclic AMP, Mutated/wild type (%), Exp 2: 5B3 100 µg/mL + TSH 3 ng/mL",[6],111%
same,% inhibition of TSH stimulation; 5B3 10 µg/mL; Experiment 1,[7],0%
same,% inhibition of TSH stimulation; 5B3 10 µg/mL; Experiment 2,[7],4%
same,% inhibition of TSH stimulation; 5B3 100 µg/mL; Experiment 1,[7],0%
same,% inhibition of TSH stimulation; 5B3 100 µg/mL; Experiment 2,[7],1%
same,Cyclic AMP produced; 5B3 10 µg/mL + TSH 3 ng/mL; Experiment 1,[7],81.6 pmol/mL
same,Cyclic AMP produced; 5B3 10 µg/mL + TSH 3 ng/mL; Experiment 2,[7],92.9 pmol/mL
same,Cyclic AMP produced; 5B3 100 µg/mL + TSH 3 ng/mL; Experiment 1,[7],81.6 pmol/mL
same,Cyclic AMP produced; 5B3 100 µg/mL + TSH 3 ng/mL; Experiment 2,[7],95.8 pmol/mL
same,Mutated/wild type (%) of cyclic AMP produced; 5B3 10 µg/mL + TSH 3 ng/mL; Experiment 1,[7],99%
same,Mutated/wild type (%) of cyclic AMP produced; 5B3 10 µg/mL + TSH 3 ng/mL; Experiment 2,[7],88%
same,Mutated/wild type (%) of cyclic AMP produced; 5B3 100 µg/mL + TSH 3 ng/mL; Experiment 1,[7],101%
same,Mutated/wild type (%) of cyclic AMP produced; 5B3 100 µg/mL + TSH 3 ng/mL; Experiment 2,[7],106%
same,"% inhibition of TSH stimulation, 5B3 10 µg/mL, mutated TSHR",[8],10%
same,"% inhibition of TSH stimulation, 5B3 100 µg/mL, mutated TSHR",[8],0%
same,"Cyclic AMP produced (pmol/mL), 5B3 10 µg/mL + TSH 3 ng/mL, mutated TSHR",[8],47 pmol/mL
same,"Cyclic AMP produced (pmol/mL), 5B3 100 µg/mL + TSH 3 ng/mL, mutated TSHR",[8],56.1 pmol/mL
same,Mutated/wild type (%) of cyclic AMP produced; 5B3 10 µg/mL + TSH 3 ng/mL,[8],37%
same,Mutated/wild type (%) of cyclic AMP produced; 5B3 100 µg/mL + TSH 3 ng/mL,[8],58%
same,"% inhibition of TSH stimulation, 5B3 10 µg/mL, wild type TSHR",[9],0%
same,"% inhibition of TSH stimulation, 5B3 100 µg/mL, wild type TSHR",[9],3%
same,"Cyclic AMP produced (pmol/mL), 5B3 10 µg/mL + TSH 3 ng/mL, wild type TSHR",[9],126 pmol/mL
same,"Cyclic AMP produced (pmol/mL), 5B3 100 µg/mL + TSH 3 ng/mL, wild type TSHR",[9],97.3 pmol/mL
same,"% inhibition of TSH stimulation (stimulator given as M22), wild type TSHR; 5B3 10 µg/mL",[10],0%
same,"% inhibition of TSH stimulation (stimulator given as M22), wild type TSHR; 5B3 100 µg/mL",[10],0%
same,"% inhibition of TSH stimulation, wild type TSHR; 5B3 10 µg/mL",[10],0%
same,"% inhibition of TSH stimulation, wild type TSHR; 5B3 100 µg/mL",[10],0%
same,% inhibition of TSH stimulation; 5B3 10 µg/mL,[10],0%
same,% inhibition of TSH stimulation; 5B3 10 µg/mL; Experiment 1,[10],0%
same,% inhibition of TSH stimulation; 5B3 10 µg/mL; Experiment 2,[10],0%
same,% inhibition of TSH stimulation; 5B3 100 µg/mL,[10],0%
same,% inhibition of TSH stimulation; 5B3 100 µg/mL; Experiment 1,[10],0%
same,% inhibition of TSH stimulation; 5B3 100 µg/mL; Experiment 2,[10],8%
same,Cyclic AMP produced; 5B3 10 µg/mL + TSH 3 ng/mL,[10],103 pmol/mL
same,Cyclic AMP produced; 5B3 10 µg/mL + TSH 3 ng/mL; Experiment 1,[10],82.8 pmol/mL
same,Cyclic AMP produced; 5B3 10 µg/mL + TSH 3 ng/mL; Experiment 2,[10],106 pmol/mL
same,Cyclic AMP produced; 5B3 100 µg/mL + TSH 3 ng/mL,[10],94.8 pmol/mL
same,Cyclic AMP produced; 5B3 100 µg/mL + TSH 3 ng/mL; Experiment 1,[10],80.7 pmol/mL
same,Cyclic AMP produced; 5B3 100 µg/mL + TSH 3 ng/mL; Experiment 2,[10],90.4 pmol/mL
same,Experiment 1: % inhibition of TSH stimulation; 5B3 10 µg/mL,[10],0%
same,Experiment 1: % inhibition of TSH stimulation; 5B3 100 µg/mL,[10],0%
same,Experiment 1; % inhibition of TSH stimulation; 5B3 10 µg/mL,[10],0%
same,Experiment 1; % inhibition of TSH stimulation; 5B3 100 µg/mL,[10],7%
same,Experiment 1; cyclic AMP produced; 5B3 10 µg/mL + TSH 3 ng/mL,[10],79.6 pmol/mL
same,Experiment 1; cyclic AMP produced; 5B3 100 µg/mL + TSH 3 ng/mL,[10],72.7 pmol/mL
same,Experiment 2: % inhibition of TSH stimulation; 5B3 10 µg/mL,[10],0%
same,Experiment 2: % inhibition of TSH stimulation; 5B3 100 µg/mL,[10],0%
same,Experiment 2; % inhibition of TSH stimulation; 5B3 10 µg/mL,[10],0%
same,Experiment 2; % inhibition of TSH stimulation; 5B3 100 µg/mL,[10],0%
same,Experiment 2; cyclic AMP produced; 5B3 10 µg/mL + TSH 3 ng/mL,[10],107 pmol/mL
same,Experiment 2; cyclic AMP produced; 5B3 100 µg/mL + TSH 3 ng/mL,[10],101 pmol/mL
same,% inhibition of TSH stimulation; 5B3 10 µg/mL,[10]; record 2,0%
same,% inhibition of TSH stimulation; 5B3 100 µg/mL,[10]; record 2,0%
same,Cyclic AMP produced; 5B3 10 µg/mL + TSH 3 ng/mL,[10]; record 2,83.6 pmol/mL
same,Cyclic AMP produced; 5B3 100 µg/mL + TSH 3 ng/mL,[10]; record 2,88 pmol/mL
